This is an account of results in the RNAGym collection of RNA variant scans (doi:10.7554/elife.80360).

B1: Hairpin Ribozyme (parent)
chain: GUCCUCUUUCACGUGCGCGUGAAAGAGAGAAGUGAACCAGAGAAACACACGUUGUGGUAUAUUACCUGGUA

The variants in this data set derive from B1. Briefly: self-cleavage, relative activity (ratio to wild type); higher = more cleavage; co-transcriptional.
For the variant GUCCUCUUUCACGAGCGCGUGAUAGAGAGAAGUGAACCAGAGAAACACACGUUGUGGUAUAUUACCUGGUA, the self-cleavage amounted to 0.701. Consider GUCCUCUUUCACGAGCGCGUGAAAGAGAGAAGUGAACCAGAGAAACGCACGUUGUGGUAUAUUACCUGGUA, for which the self-cleavage is 0.153.

For the variant GUCCUCUUUCACGAGCGCGUGUAAGAGAGAAGUGAACCAGAGAAACACACGUUGUGGUAUAUUACCUGGUA, the self-cleavage came out at 0.715. With GUCCUCUUUCACGAGCGCGUGGAAGAGAGAAGUGAACCAGAGAAACACACGUUGUGGUAUAUUACCUGGUA, the self-cleavage came out at 0.762. In the case of GUCCUCUUUCACGAGCGCGUGAAAGCGAGAAGUGAACCAGAGAAACACACGUUGUGGUAUAUUACCUGGUA, the self-cleavage was found to be 0.817.

Turning to GUCCUCUUUCACGAGCGCGUGAAAGAGAGAAGUGAACCAGAGAAACACACGUUCUGGUAUAUUACCUGGUA, the self-cleavage is 0.338. As for GUCCUCUUUCACUUGCGCGCGAAAGAGAGAAGUGAACCAGAGAAACACACGUUGUGGUAUAUUACCUGGUA, the self-cleavage was found to be 1.03.

As for GUCCUCUUUCACUUGCGCGAGAAAGAGAGAAGUGAACCAGAGAAACACACGUUGUGGUAUAUUACCUGGUA, the self-cleavage is 0.73. For the variant GUCCUCUUUCACUUGCGCGUGAAAGAGAGAAGUGAACCAGAGAAACACACGUUGUGGUAUAUUACCGGGUA, the self-cleavage is 0.241.

As to GUCCUCUUUCACUUGCGCGUGAAAGAGAGAAGUGAACCAGAGAAACACACGUAGUGGUAUAUUACCUGGUA, the self-cleavage came to 0.777. Regarding GUCCUCUUUCACGAGCGCGUGAAUGAGAGAAGUGAACCAGAGAAACACACGUUGUGGUAUAUUACCUGGUA, the self-cleavage came to 0.644. Consider GUCCUCUUUCACUUGCGCGUGAAAGAGAGAAGUGAACCAGAGAAACACACGUUGUGGUAUAUGACCUGGUA, for which the self-cleavage was found to be 0.257. Take GUCCUCUUUCACGAGCACGUGAAAGAGAGAAGUGAACCAGAGAAACACACGUUGUGGUAUAUUACCUGGUA: the self-cleavage was 1.03.

Regarding GUCCUCUUUCACGAGCUCGUGAAAGAGAGAAGUGAACCAGAGAAACACACGUUGUGGUAUAUUACCUGGUA, the self-cleavage was found to be 0.96. Regarding GUCCUCUUUCACGAGCGCGUCAAAGAGAGAAGUGAACCAGAGAAACACACGUUGUGGUAUAUUACCUGGUA, the self-cleavage was determined as 0.467. The value for GUCCUCUUUCACUUGCGCGUGAAAGAGAGAAGUGAACCAGAGAAACACACGUUGUGGCAUAUUACCUGGUA was 0.919; that for GUCCUCUUUCACUUGCGCGUGAAAGAGAGAAGUGAACCAGAGAAACACACGUUGUGGAAUAUUACCUGGUA was 0.808; that for GUCCUCUUUCACGAGCGCGUGAAAGAGCGAAGUGAACCAGAGAAACACACGUUGUGGUAUAUUACCUGGUA was 0.454. GUCCUCUUUCACGAGCGCGUGAAAGAGAGAAGUGAACCAGAGAAACACACGUUGUGGUACAUUACCUGGUA: the self-cleavage was 1.07.

Take GUCCUCUUUCACGAGCGCGUGAAAGAGAGAAGUGAACCAGAGAAACACACGUUGUGGUAAAUUACCUGGUA: the self-cleavage was 0.987. The value for GUCCUCUUUCACGAGCGCGUGAAAGAGAGAAGUGAACCAGAGAAAUACACGUUGUGGUAUAUUACCUGGUA was 0.126.

As for GUCCUCUUUCACGAGCGCGUGAAAGAGAGAAGUGAACCAGAGAAACAGACGUUGUGGUAUAUUACCUGGUA, the self-cleavage worked out at 0.196. Turning to GUCCUCUUUCACGAGCGCGUGAAAGAGAGAAGUGAACCAGAGAAACAAACGUUGUGGUAUAUUACCUGGUA, the self-cleavage stood at 0.179. With GUCCUCUUUCACGAGCGCGUGAAAGAGAGAAGUGAACCAGAGAAACACACGUUGCGGUAUAUUACCUGGUA, the self-cleavage was 0.206. GUCCUCUUUCACGAGCGCGUGAAAGAGAGAAGUGAACCAGAGAAACACACGUUGAGGUAUAUUACCUGGUA: the self-cleavage stood at 0.201. For the variant GUCCUCUUUCACGAGCGCGUGAAAGAGAGAAGUGAACCAGAGAAACACACGUUGUGUUAUAUUACCUGGUA, the self-cleavage amounted to 0.195. As for GUCCUCUUUCACGAGCGCGUGAAAGAGAGAAGUGAACCAGAGAAACACACGUUGUGCUAUAUUACCUGGUA, the self-cleavage turned out to be 0.132.

On to GUCCUCUUUCACGAGCGCAUGAAAGAGAGAAGUGAACCAGAGAAACACACGUUGUGGUAUAUUACCUGGUA, for which the self-cleavage worked out at 0.756. With GUCCUCUUUCACUUGCGCGUGAAAGAGAGAAGAGAACCAGAGAAACACACGUUGUGGUAUAUUACCUGGUA, the self-cleavage was 0.105. With GUCCUCUUUCACUCGCGCGUGAAAGAGAGAAGUGAACCAGAGAAACACACGUUGUGGUAUAUUACCUGGUA, the self-cleavage is 0.544. In the case of GUCCUCUUUCACGAGCGCGUGAAAGAGAGAAGUGAACCGGAGAAACACACGUUGUGGUAUAUUACCUGGUA, the self-cleavage came to 0.345.

On to GUCCUCUUUCACGAGCGCGUGAAAGAGAGAAGUGAACCAGAGAAACACCCGUUGUGGUAUAUUACCUGGUA, for which the self-cleavage was determined as 0.117. As for GUCCUCUUUCACGAGCGCGUGAAAGAGAGAAGUGAACCAGAGAAACACGCGUUGUGGUAUAUUACCUGGUA, the self-cleavage was 0.554.

With GUCCUCUUUCACGAGCGCGUGAAAGAGAGAAGUGAACCAGAGUAACACACGUUGUGGUAUAUUACCUGGUA, the self-cleavage was found to be 0.0759. Take GUCCUCUUUCACGAGCGCGUGAAAGAGAGAAGUGACCCAGAGAAACACACGUUGUGGUAUAUUACCUGGUA: the self-cleavage stood at 0.502. For GUCCUCUUUCACGAGCGCGUGAAAGAGAGAAGUGAUCCAGAGAAACACACGUUGUGGUAUAUUACCUGGUA, the self-cleavage was determined as 0.582. In the case of GUCCUCUUUCACGAGCGCGUGAAAGAGAGAUGUGAACCAGAGAAACACACGUUGUGGUAUAUUACCUGGUA, the self-cleavage was 0.124. The value for GUCCUCUUUCACGAGCGCGUGAAAGAGAGAAGUGAACCAGAGAAACACACGUUGUGGUAUAGUACCUGGUA was 0.125.
